Laboratory results reported in the supplement of paper PMC10065799, “High-throughput profiling of sequence recognition by tyrosine kinases and SH2 domains using bacterial peptide display” (eLife, 2023).

Tests used:
SHP2-C SH2 = experiment: SH2 binding enrichment of the phosphorylated peptide, bacterial display (enrichment ratio); higher = better substrate or ligand; peptides without Tyr show the background
Grb2 SH2 = Grb2 SH2 (UniProt P62993); experiment: as above
c-Src SH2 = experiment: as above
AncSZ = experiment: phosphorylation enrichment, bacterial display (enrichment ratio); higher = better substrate or ligand; peptides without Tyr show the background
c-Src = experiment: as above
FGFR3 = FGFR3 (UniProt P22607); experiment: as above
FGFR3, sequence (P22607 whole entry, looked up): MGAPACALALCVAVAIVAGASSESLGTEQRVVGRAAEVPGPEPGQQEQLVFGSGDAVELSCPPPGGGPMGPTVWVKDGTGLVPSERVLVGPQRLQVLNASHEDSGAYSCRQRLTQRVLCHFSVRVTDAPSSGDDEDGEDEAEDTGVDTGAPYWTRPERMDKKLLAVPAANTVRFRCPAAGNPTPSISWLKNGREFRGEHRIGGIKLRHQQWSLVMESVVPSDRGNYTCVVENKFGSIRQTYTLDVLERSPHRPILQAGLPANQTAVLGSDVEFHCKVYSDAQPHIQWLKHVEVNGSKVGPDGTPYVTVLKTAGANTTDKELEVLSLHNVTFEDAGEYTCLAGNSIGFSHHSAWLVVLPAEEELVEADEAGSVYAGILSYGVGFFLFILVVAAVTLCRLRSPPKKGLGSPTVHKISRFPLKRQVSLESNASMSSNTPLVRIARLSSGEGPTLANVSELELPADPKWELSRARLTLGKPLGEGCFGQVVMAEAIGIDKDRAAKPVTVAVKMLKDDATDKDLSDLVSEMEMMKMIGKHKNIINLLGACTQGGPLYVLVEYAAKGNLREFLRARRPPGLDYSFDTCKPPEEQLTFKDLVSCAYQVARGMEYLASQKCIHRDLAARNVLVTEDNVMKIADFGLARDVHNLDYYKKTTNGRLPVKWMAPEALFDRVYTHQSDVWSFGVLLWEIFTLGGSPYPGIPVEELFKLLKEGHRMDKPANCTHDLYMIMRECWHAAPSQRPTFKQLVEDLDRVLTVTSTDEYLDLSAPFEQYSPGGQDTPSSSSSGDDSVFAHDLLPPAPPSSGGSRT

EPHB1 = EPHB1 (UniProt P54762); experiment: as above
EPHB2 = EPHB2 (UniProt P29323); experiment: as above
EPHB2, sequence (P29323 whole entry, looked up): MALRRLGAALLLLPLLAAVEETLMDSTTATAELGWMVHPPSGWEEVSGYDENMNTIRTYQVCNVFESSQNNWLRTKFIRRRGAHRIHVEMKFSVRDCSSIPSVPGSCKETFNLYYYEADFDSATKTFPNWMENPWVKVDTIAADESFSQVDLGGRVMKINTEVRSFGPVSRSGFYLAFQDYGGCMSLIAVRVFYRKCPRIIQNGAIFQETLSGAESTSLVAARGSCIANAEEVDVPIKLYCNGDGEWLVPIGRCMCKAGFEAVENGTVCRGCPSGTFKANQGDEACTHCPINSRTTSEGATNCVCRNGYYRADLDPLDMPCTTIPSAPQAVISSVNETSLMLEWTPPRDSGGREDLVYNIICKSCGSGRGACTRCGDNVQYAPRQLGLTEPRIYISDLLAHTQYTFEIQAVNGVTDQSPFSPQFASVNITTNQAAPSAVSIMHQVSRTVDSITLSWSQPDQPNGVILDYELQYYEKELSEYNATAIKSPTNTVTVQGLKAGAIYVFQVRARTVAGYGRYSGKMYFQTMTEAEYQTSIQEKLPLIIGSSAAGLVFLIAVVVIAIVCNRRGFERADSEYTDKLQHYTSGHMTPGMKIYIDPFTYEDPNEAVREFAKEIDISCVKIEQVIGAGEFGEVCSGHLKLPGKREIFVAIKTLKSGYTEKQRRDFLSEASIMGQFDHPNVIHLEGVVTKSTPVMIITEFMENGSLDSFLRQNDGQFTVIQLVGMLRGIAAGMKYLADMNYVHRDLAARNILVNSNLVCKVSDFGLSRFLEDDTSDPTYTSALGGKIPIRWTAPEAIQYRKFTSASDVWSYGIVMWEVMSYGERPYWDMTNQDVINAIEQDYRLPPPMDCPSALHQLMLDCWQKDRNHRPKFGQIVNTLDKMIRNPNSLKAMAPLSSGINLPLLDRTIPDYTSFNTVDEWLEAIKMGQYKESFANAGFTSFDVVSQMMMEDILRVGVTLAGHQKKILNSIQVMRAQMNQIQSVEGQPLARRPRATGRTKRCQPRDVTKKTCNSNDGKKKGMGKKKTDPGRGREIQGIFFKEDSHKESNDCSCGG

Hck = Hck (UniProt P08631); experiment: as above
Hck, sequence (P08631 whole entry, looked up): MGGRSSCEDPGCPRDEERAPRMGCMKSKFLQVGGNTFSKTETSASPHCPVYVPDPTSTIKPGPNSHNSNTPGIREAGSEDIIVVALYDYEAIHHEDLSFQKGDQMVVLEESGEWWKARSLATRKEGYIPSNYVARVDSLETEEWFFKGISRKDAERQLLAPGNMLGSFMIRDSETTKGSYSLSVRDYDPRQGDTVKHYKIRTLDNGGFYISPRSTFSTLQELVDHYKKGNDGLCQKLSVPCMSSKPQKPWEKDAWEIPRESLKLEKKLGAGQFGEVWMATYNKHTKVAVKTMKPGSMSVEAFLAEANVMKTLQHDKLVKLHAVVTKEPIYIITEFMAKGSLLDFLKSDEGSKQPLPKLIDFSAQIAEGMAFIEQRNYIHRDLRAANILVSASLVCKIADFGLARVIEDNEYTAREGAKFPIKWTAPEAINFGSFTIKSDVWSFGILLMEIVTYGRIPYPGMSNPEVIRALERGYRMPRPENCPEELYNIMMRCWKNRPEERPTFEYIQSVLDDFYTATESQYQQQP

MERTK = MERTK (UniProt Q12866); experiment: as above
Fyn = Fyn (UniProt P06241); experiment: as above
Fyn, sequence (P06241 whole entry, looked up): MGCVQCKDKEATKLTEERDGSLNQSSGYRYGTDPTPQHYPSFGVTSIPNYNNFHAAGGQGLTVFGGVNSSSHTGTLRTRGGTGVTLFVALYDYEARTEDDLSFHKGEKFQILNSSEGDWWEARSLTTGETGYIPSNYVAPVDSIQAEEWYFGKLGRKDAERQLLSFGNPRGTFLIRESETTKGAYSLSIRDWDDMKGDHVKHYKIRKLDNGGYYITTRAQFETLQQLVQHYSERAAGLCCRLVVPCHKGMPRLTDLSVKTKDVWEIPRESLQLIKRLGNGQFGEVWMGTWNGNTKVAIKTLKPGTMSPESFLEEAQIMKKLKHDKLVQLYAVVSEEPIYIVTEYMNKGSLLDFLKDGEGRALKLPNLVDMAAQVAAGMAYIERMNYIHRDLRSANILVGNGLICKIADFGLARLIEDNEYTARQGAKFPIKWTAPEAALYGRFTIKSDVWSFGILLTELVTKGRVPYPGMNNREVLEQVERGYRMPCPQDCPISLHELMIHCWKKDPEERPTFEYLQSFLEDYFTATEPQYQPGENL

Jak2 = Jak2 (UniProt O60674); experiment: as above
Jak2, sequence (O60674 whole entry, looked up): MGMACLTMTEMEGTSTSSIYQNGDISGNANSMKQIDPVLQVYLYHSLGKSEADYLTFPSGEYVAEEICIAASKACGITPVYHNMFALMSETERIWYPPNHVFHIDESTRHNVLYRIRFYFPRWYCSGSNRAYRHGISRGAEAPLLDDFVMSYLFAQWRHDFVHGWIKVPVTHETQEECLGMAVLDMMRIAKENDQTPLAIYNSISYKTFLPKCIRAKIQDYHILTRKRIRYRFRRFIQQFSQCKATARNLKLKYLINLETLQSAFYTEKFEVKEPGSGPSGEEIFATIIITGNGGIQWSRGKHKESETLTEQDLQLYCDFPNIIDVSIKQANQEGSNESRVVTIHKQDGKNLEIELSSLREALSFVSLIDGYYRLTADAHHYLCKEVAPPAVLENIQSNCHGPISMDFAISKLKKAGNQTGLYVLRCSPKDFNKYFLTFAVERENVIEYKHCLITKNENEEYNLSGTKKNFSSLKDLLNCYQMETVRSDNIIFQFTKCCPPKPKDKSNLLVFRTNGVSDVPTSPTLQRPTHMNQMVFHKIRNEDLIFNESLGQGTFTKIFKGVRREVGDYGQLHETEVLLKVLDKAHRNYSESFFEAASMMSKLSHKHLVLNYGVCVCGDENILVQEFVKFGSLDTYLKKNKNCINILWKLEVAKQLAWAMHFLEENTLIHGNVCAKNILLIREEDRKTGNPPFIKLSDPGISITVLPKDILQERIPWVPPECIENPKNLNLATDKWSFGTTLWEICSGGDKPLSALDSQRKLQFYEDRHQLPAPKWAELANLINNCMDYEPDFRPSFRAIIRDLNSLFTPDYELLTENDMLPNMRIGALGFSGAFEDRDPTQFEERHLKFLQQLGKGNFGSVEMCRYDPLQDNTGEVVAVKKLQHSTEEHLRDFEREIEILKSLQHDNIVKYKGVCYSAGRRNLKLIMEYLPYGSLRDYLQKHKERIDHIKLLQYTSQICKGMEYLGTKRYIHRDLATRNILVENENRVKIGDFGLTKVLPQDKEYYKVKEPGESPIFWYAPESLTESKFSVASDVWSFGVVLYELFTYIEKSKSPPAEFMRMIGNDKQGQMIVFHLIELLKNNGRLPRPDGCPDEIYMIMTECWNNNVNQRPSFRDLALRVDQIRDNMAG

Fes = Fes (UniProt P07332); experiment: as above
Fes, sequence (P07332 whole entry, looked up): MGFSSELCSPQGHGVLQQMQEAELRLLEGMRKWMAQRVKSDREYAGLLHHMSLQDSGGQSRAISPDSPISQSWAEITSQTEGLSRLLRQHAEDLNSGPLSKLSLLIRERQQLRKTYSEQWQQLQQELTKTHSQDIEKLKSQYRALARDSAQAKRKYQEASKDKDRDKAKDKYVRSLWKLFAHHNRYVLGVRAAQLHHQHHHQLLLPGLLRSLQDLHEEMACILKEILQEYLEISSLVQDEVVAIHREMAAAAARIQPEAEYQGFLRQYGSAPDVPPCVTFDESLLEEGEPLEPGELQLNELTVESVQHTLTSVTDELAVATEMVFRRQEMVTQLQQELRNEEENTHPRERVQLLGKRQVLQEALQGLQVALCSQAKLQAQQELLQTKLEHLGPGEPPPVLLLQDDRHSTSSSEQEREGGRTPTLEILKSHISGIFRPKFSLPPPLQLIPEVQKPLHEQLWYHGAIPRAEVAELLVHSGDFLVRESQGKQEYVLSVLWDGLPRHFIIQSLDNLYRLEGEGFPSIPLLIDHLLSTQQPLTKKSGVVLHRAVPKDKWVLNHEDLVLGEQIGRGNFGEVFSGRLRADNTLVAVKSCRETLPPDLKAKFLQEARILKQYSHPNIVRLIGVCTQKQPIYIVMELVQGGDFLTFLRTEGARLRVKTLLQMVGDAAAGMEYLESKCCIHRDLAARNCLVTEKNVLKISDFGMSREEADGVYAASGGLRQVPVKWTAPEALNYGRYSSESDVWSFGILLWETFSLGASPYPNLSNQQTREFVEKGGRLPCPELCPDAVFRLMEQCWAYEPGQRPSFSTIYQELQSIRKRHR

FGFR1 = FGFR1 (UniProt P11362); experiment: as above
Fer (mouse) = experiment: as above
c-Abl (mouse) = experiment: as above
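For SH2 binding enrichment of the phosphorylated peptide, bacterial display in this document: peptide library displayed on the E. coli surface as eCPX fusions, selected cells deep-sequenced, score is each peptide's frequency after selection divided by its frequency in the input.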
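For phosphorylation enrichment, bacterial display in this document: 11-residue human phosphosite peptides and single-mutation variants displayed on the E. coli surface, counted by deep sequencing, each peptide's frequency after selection divided by its frequency in the unselected input library; frequency after pTyr selection over input frequency; kinase dosed for 20-30% of maximal phosphorylation in three min.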

Row | Sequence | SH2 binding enrichment (SHP2-C SH2) | SH2 binding enrichment (Grb2 SH2) | SH2 binding enrichment (c-Src SH2) | phosphorylation enrichment (AncSZ) | phosphorylation enrichment (c-Src) | phosphorylation enrichment (FGFR3) | phosphorylation enrichment (EPHB1) | phosphorylation enrichment (EPHB2) | phosphorylation enrichment (Hck) | phosphorylation enrichment (MERTK) | phosphorylation enrichment (Fyn) | phosphorylation enrichment (Jak2) | phosphorylation enrichment (Fes) | phosphorylation enrichment (FGFR1) | phosphorylation enrichment (Fer (mouse)) | phosphorylation enrichment (c-Abl (mouse))
1 | GMEIVYVFVKK [DNAI2_Y5_YF] | 0.787 | 0.941 | 0.556 | 1.4 | 0.627 | 0.862 | 0.709 | 0.654 | 0.673 | 0.481 | 0.554 | 1.59 | 1.44 | 0.587 | 0.58 | 1.22
2 | GMSQAYSFSQR [DES_Y5_S7F] | 0.747 | 0.818 | 0.476 | 0.761 | 0.495 | 0.481 | 0.317 | 0.453 | 0.379 | 0.721 | 0.389 | 0.551 | 0.755 | 0.392 | 0.338 | 0.454
3 | GNLLIYTEFGN [HGD_Y166_K171N] | 0.541 | 0.736 | 0.462 | 1.31 | 4.74 | 0.903 | 2.71 | 1.89 | 3.51 | 3.75 | 5.81 | 0.997 | 1.15 | 0.726 | 0.775 | 2.23
4 | GQAPGYSFTAA [CYCS_Y47_YF] | 0.8 | 0.653 | 0.577 | 0.502 | 0.503 | 0.428 | 0.354 | 0.427 | 0.416 | 0.389 | 0.393 | 0.471 | 0.509 | 0.422 | 0.364 | 0.504
5 | GRTGHYLCNAC [GATA1_Y223_D218G] | 0.872 | 1.25 | 0.917 | 0.445 | 0.296 | 0.433 | 0.4 | 0.287 | 0.392 | 0.481 | 0.332 | 0.446 | 0.631 | 0.436 | 0.32 | 0.375
6 | GSERDYTYDEL [EIF2S2_Y174_E177D] | 0.722 | 0.82 | 1.66 | 1.14 | 0.766 | 0.614 | 0.504 | 0.879 | 0.849 | 0.424 | 0.59 | 0.999 | 1.01 | 0.507 | 0.617 | 0.803
7 | HCEDGYPGGSD [CTNND1_Y221_Y217C] | 0.653 | 1.06 | 0.64 | 1.44 | 0.514 | 1.15 | 1.03 | 0.743 | 0.714 | 0.626 | 0.817 | 1.34 | 1.81 | 0.664 | 0.672 | 1.35
8 | HDHFGYRQSVT [CD55_Y245_R240H_YF] | 0.871 | 0.803 | 0.628 | 0.733 | 0.725 | 0.528 | 0.65 | 0.434 | 0.51 | 0.346 | 0.444 | 0.536 | 0.896 | 0.479 | 0.482 | 0.659
9 | HDHYGYRQSVT [CD55_Y245_R240H] | 0.833 | 0.895 | 0.654 | 0.801 | 0.538 | 0.623 | 0.4 | 0.713 | 0.969 | 0.883 | 0.94 | 1.06 | 1.06 | 0.695 | 0.743 | 0.622
10 | HKLSYYEYDFE [BTK_Y40] | 0.941 | 1.05 | 3.4 | 1.86 | 2.48 | 4.03 | 2.02 | 1.38 | 0.952 | 3.67 | 2.13 | 1.6 | 2.13 | 7.25 | 0.64 | 1.26
11 | HNMPIYEGYAL [ACTA1_Y168_V165M] | 0.893 | 0.71 | 2.93 | 1.3 | 10.4 | 0.654 | 19.7 | 25.5 | 13.5 | 11 | 13.1 | 0.831 | 2.64 | 0.465 | 17.4 | 11.3
12 | HNVPIYEGYGL [ACTA1_Y168_A172G] | 0.886 | 0.755 | 1.33 | 1.52 | 11.5 | 0.941 | 31.8 | 41.9 | 17.4 | 10.9 | 20 | 0.805 | 5.48 | 0.666 | 27.9 | 3.23
13 | HPHECYAKVFD [ALB_Y394_D389H] | 2.67 | 0.944 | 3.07 | 1.16 | 0.659 | 0.845 | 0.641 | 0.441 | 0.654 | 0.764 | 0.622 | 1.3 | 1.36 | 0.636 | 0.624 | 1.01
14 | HSVLQYVGGVM [FGGY_Y136] | 0.511 | 0.961 | 0.493 | 1.05 | 0.738 | 1.18 | 0.943 | 0.977 | 0.833 | 0.986 | 0.776 | 1.11 | 1.48 | 0.944 | 0.73 | 0.846

Second part, led by results:

Row | SH2 binding enrichment (SHP2-C SH2) | SH2 binding enrichment (Grb2 SH2) | SH2 binding enrichment (c-Src SH2) | Sequence | phosphorylation enrichment (AncSZ) | phosphorylation enrichment (c-Src) | phosphorylation enrichment (FGFR3) | phosphorylation enrichment (EPHB1) | phosphorylation enrichment (EPHB2) | phosphorylation enrichment (Hck) | phosphorylation enrichment (MERTK) | phosphorylation enrichment (Fyn) | phosphorylation enrichment (Jak2) | phosphorylation enrichment (Fes) | phosphorylation enrichment (FGFR1) | phosphorylation enrichment (Fer (mouse)) | phosphorylation enrichment (c-Abl (mouse))
15 | 0.659 | 0.744 | 0.451 | GNLQEYLTRHV [TGFBR2_Y336] | 0.794 | 0.363 | 0.584 | 0.474 | 0.564 | 0.465 | 0.368 | 0.455 | 0.581 | 0.828 | 0.516 | 0.462 | 0.667
16 | 0.769 | 0.696 | 0.51 | GRDVIYKGFED [NFU1_Y194_G190R] | 0.77 | 1.97 | 0.539 | 0.528 | 0.401 | 0.96 | 0.391 | 2.94 | 0.767 | 1 | 0.468 | 0.426 | 0.561
17 | 0.484 | 0.649 | 0.555 | GRLGEYDIDEV [SMS_Y134_V132G] | 1.3 | 0.643 | 1 | 0.909 | 0.859 | 0.647 | 0.494 | 0.789 | 1.27 | 1.45 | 0.551 | 0.688 | 0.881
18 | 0.873 | 0.762 | 0.431 | GSESDYIIMPN [SCARB1_Y133_V135I] | 2.88 | 0.6 | 3.91 | 6.96 | 6.96 | 0.526 | 0.551 | 0.456 | 0.919 | 0.826 | 5.65 | 0.411 | 0.466
19 | 1.18 | 1.16 | 0.751 | GSSKIYFLHPD [TLR5_Y108] | 0.849 | 1.83 | 1.85 | 0.529 | 0.624 | 1.21 | 2.89 | 1.84 | 0.714 | 0.844 | 2.48 | 0.403 | 0.642
20 | 0.717 | 0.769 | 0.591 | GYRVCYTPDSR [PTPRF_Y451_Y450C] | 1.07 | 0.522 | 0.739 | 0.635 | 0.592 | 0.547 | 0.434 | 0.498 | 0.975 | 1.26 | 0.492 | 0.505 | 0.794
21 | 0.664 | 0.63 | 1.92 | HEDPMYDIIRD [RP9_Y142] | 1.94 | 5.36 | 0.687 | 3.51 | 3.85 | 5.56 | 5.24 | 5.63 | 1.29 | 1.48 | 0.718 | 4.2 | 1.27
22 | 0.598 | 0.91 | 0.747 | HEKKVYSFCGT [RPS6KA3_Y226_A225V] | 0.991 | 0.742 | 0.842 | 0.736 | 0.68 | 0.645 | 0.881 | 0.58 | 0.692 | 1.03 | 0.74 | 0.431 | 0.838
23 | 0.754 | 0.98 | 0.524 | HFGCVYHGTLL [MET_Y1093] | 1.8 | 4.11 | 1.19 | 1.21 | 0.991 | 0.9 | 0.637 | 1.08 | 1.28 | 1.67 | 1.04 | 0.967 | 1.33
24 | 1.57 | 1.16 | 0.872 | HFIKLYEEKTG [PARP1_Y618_M615I] | 1.69 | 0.392 | 0.807 | 1.17 | 1.08 | 0.828 | 0.694 | 0.978 | 1.03 | 0.952 | 0.456 | 0.798 | 0.781
25 | 0.931 | 1.21 | 2.48 | HGEAFYSEVKA [PAK5_Y182_P187A_YF] | 0.971 | 4.05 | 2.63 | 1.26 | 1.47 | 5.57 | 8.27 | 3.92 | 0.834 | 1.01 | 4.75 | 11 | 0.619
26 | 0.749 | 0.906 | 0.584 | HHTDEYEYDEL [TGM1_Y134] | 2.01 | 0.916 | 1.05 | 1.02 | 0.904 | 0.943 | 0.687 | 1.01 | 1.19 | 1.59 | 1.02 | 0.958 | 1.08
27 | 0.651 | 0.754 | 1.79 | HITQVYGFYDE [PPP2CA_Y127_Q122H] | 2.11 | 12.3 | 1.26 | 1.31 | 1.85 | 5.95 | 2.79 | 13.2 | 1.88 | 1.79 | 2.27 | 2.21 | 1.58
28 | 0.696 | 0.891 | 0.698 | HKGASYAFRLS [PTPRD_Y891_V892A] | 1.06 | 0.785 | 1.11 | 0.935 | 0.581 | 0.49 | 0.525 | 0.838 | 0.827 | 0.962 | 0.66 | 0.645 | 0.846
29 | 0.795 | 0.796 | 0.52 | HLVLNYGVCVC [JAK2_Y613] | 2.33 | 0.779 | 1.8 | 1.61 | 1.27 | 0.985 | 1.44 | 1.1 | 1.99 | 2.31 | 0.91 | 0.99 | 1.49
30 | 0.545 | 0.746 | 3.65 | HRDDGYMPMSP [IRS1_Y612_T608R] | 0.785 | 0.589 | 0.715 | 0.577 | 0.53 | 0.488 | 0.37 | 0.572 | 1.16 | 0.817 | 0.534 | 0.683 | 0.756
31 | 0.316 | 0.686 | 0.206 | HRGCLYLAIEF [TEK_Y899_Y897C_YF] | 1.29 | 0.49 | 1.17 | 0.758 | 1.81 | 0.367 | 0.467 | 0.26 | 1.33 | 1.37 | 0.667 | 0.511 | 1.31
32 | 0.566 | 0.722 | 0.533 | HSGVSYYINLC [IGF2R_Y2024_N2020S] | 1.59 | 0.488 | 1.09 | 1.15 | 0.942 | 0.729 | 0.563 | 0.661 | 2.38 | 1.93 | 0.849 | 0.951 | 1.21
33 | 1.76 | 1.08 | 1.31 | HSKGIYYVQLE [MGAT4B_Y262_Q257H] | 1.28 | 4.78 | 3.3 | 1.68 | 1.03 | 2.88 | 9.49 | 3.29 | 4.4 | 1.39 | 5.54 | 0.615 | 1.02
